EC50 and IC50 data for 19 molecules are collected here from patent publication US20230242658A1 (published 2023).

The term EC50 denotes the midpoint of the concentration-response curve. By IC50 is commonly meant the midpoint of a concentration-inhibition curve.

Positions count from the first letter of the chain named.

T1: cynomolgus monkey 4-1BB on CHO-K1 cells (cynomolgus monkey)
T1 chain: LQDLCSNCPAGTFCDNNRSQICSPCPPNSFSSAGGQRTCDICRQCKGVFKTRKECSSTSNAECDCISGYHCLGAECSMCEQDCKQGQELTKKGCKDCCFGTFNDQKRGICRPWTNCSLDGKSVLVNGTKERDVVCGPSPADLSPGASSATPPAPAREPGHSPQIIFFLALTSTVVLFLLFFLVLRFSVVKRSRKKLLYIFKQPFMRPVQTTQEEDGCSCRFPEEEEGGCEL

B1: PR007292 (antibody, V domains shown)
VH: EVQLVESGGGLVKPGGSLRLSCAASGFTFSDYYMSWIRQAPGKGLEWVSYISSSGSTIDYADSVKGRFTISRDNAKNSLYLQMNSLRAEDTAVYYCAREREEVAGTLDYDNWGQGTLVTVSS
B2: PR007294 (antibody, V domains shown)
VH: B1 VH with A23V, I37F, S53G, S56T, E102P, Y109F
B3: PR007293 (antibody, V domains shown)
VH: B1 VH with I37F, S52N, D59Y, A61E, D62Y, Y109F, N111Y
B4: PR001840 (antibody, V domains shown)
VH: EVQLVESGGGLVQPGGSLRLSCAASGFTFSSYWMHWVRQAPGKGLVWVSRINSDGSSTSYADSVQGRFTISRDNAKNTLYLQMNSLRAEDTAVYYCVRKGSSSYYHYSIEDDWGQGTLVTVSS
B5: PR001837 (antibody, V domains shown)
VH: EVQLLESGGGLVQPGGSLRLSCEASGFTFSSYAMSWVRQAPEKGLEWVSSISGSGGSTFYADSVKGRFTISRDNSKNTLYLQMNSLRAEDTAVYYCAKEGTTETDDYHYNMDVWGQGTTVTVSS
B6: PR007300 (antibody, V domains shown)
VH: EVQLVESGGGLVKPGGSLRLSCTTSGFTFSDYYMNWVRQAPGKGLEWVSYISNNGSTIYYADSVKGRFTISRDNAKNSLYLQMNSLRAEDTAVYYCARVRPGGSGNYWDWFDPWGQGTPVTVSS
B7: PR007299 (antibody, V domains shown)
VH: EVQLVESGGGLVKPGGSLRLSCAASGFTFSDYQMSWLRQAPGKGLEWVSYISSSGRTIYYADSVKGRFTISRDNAKNSVSLQMNSLRAEDTAVYYCAREGRFFPGQGTPVTVSS
B8: PR007298 (antibody, V domains shown)
VH: B1 VH with I37V, Y80F, Q82E, Y109F
B9: PR004270 (bispecific antibody)
chain 1: EVQLVESGGGLVQPGGSLRLSCAASGFTFSSYWMSWVRQAPGKGLEWVANIKQEGSEKYYVDSVKGRFTISRDNAKNSLYLQMNSLRAEDTAVYYCARDRAVAGAFDIWGQGTMVTVSSASTKGPSVFPLAPSSKSTSGGTAALGCLVKDYFPEPVTVSWNSGALTSGVHTFPAVLQSSGLYSLSSVVTVPSSSLGTQTYICNVNHKPSNTKVDKKVEPKSC
chain 2: not shown
B10: PR004268 (bispecific antibody)
light: DIQMTQSPSTLSASVGDRVTVTCRASQSIYIWLAWYQQKPGKAPNLLIYKASSLETGVPSRFSGSGSGTEFTLTISSLQPDDFATYYCQQYYGSSRTFGQGTKVEIKRTVAAPSVFIFPPSDEQLKSGTASVVCLLNNFYPREAKVQWKVDNALQSGNSQESVTEQDSKDSTYSLSSTLTLSKADYEKHKVYACEVTHQGLSSPVTKSFNRGEC
heavy: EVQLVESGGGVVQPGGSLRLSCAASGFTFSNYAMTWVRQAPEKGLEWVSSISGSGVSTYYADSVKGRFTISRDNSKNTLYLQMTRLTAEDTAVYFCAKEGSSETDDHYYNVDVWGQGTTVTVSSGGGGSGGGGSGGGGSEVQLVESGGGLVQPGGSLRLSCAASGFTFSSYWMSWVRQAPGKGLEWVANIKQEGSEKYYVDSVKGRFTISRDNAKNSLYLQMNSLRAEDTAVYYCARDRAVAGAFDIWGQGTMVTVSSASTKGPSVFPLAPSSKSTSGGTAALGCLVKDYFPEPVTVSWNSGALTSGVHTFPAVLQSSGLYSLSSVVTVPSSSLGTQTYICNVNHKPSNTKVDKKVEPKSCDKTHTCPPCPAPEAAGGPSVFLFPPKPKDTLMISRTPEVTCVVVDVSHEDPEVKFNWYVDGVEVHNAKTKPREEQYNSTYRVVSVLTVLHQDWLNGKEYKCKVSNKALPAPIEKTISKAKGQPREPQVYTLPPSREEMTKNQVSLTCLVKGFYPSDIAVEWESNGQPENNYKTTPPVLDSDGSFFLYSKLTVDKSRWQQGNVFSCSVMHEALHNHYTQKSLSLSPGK
B11: PR007295 (antibody, V domains shown)
VH: B6 VH with T23A, T24A, N35S, V37I, P119M
B12: PR007297 (antibody, V domains shown)
VH: B6 VH with T23A, T24A, N35S, V37I, N53R, N54S, P119L
B13: PR007296 (antibody, V domains shown)
VH: B1 VH with A23V, I37F, S53G, S56T, E102A, Y109F, L117P
B14: PR001774 (antibody, V domains shown)
VH: EVQLVESGGGLVQPGGSLRLSCAASGFTFSSFAMTWVRQAPEKGLEWVSTISGSGDTTYYADSVKGRFTISRDSSKNTLYLQMNSLRAEDSAVYFCAKEATAMASDYYYGVDVWGQGTTVTVSS
B15: PR001768 (antibody, V domains shown)
VH: EVQLLESGGGLVQPGGSLRLSCAASGFTFSNYAMTWVRQAPGKGLEWVSSISGSGDSTYYADSVKGRFTISRDNSKNTLYLQMNSLRAEDTAVYYCAKEGTGTTSDYYYNVDVWGQGTTVTVSS
B16: PR001771 (antibody, V domains shown)
VH: B15 VH with A40P, D56G
B17: PR001759 (antibody, V domains shown)
VH: EVQLLESGGGLVQPGGSLRLSCAASGFTFSSYAMSWFRQPPETGLQWVSSIGGSGGDTYYADSVKGRFTISRDNSKNTLYLQMNSLRAEDTAVYYCAKEGSNGTDDNYYDVDVWGQGTTVTVSS
B18: PR001760 (antibody, V domains shown)
VH: EVQLVESGGGVVQPGGSLRLSCAASGFTFSNYAMTWVRQAPEKGLEWVSSISGSGVSTYYADSVKGRFTISRDNSKNTLYLQMTRLTAEDTAVYFCAKEGSSETDDHYYNVDVWGQGTTVTVSS
B19: PR001758 (antibody, V domains shown)
VH: EVQLLESGGGLVQLGGSLRLSCAASGFTFSRYAMTWVRQAPEKGLEWVSSISGSGDDTYYGDSVKGRFTISRDNSQNTVYLQMNSLRAEDTAVYFCAKEKAGTTGDYYYNVDVWGQGTTVTVSS

One test concerns the target T1, cynomolgus monkey 4-1BB on CHO-K1 cells. Kind of test: FACS; FIG. 12J. Background: In flow cytometry, cells or beads pass a laser one at a time.
B1 showed a concentration giving a half-maximal response (EC50) of 4.88 nM.
Same read-out and setting: as for B2, the figure is 1.99 nM; as for B3, 2.1 nM.

The next test has as its target T2, human 4-1BB on CHO-K1 cells (human, UniProt Q07011 24-255). The experiment in a line: FACS.
Target sequence in this assay (Q07011 24-255): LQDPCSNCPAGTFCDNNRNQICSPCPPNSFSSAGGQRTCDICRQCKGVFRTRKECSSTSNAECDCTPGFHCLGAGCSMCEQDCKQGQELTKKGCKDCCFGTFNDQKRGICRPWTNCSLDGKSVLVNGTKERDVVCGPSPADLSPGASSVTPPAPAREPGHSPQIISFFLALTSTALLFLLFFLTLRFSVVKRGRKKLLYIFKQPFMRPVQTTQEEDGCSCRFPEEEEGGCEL
Molecule B4 had a concentration giving a half-maximal response (EC50) of 0.37 nM.
On to B5, for which a half-maximal effect (EC50) was put at 0.386 nM.

The target of another test is T2, human 4-1BB on CHO-K1 cells. The experiment in a line: FACS; FIG. 11K.
Target sequence in this assay (Q07011 24-255): as above
In turn, B1 yielded an EC50 of 1.81 nM.
As for B2, the 50% effective concentration (EC50) was 1.14 nM.
Same read-out and setting: as for B3, the figure is 2.25 nM.

For another test, the target named is T1, cynomolgus monkey 4-1BB on CHO-K1 cells. Kind of test: FACS; FIG. 12L.
In turn, B6 returned a concentration giving a half-maximal response (EC50) of 1.94 nM.
B7 returned a concentration for a half-maximal effect (EC50) of 118 nM.
On the same count and under the same terms, to B8 belongs 2.33 nM.

For a further test, the target named is T2, human 4-1BB on CHO-K1 cells. Kind of test: FACS blocking of 4-1BBL; FIG. 14F.
In turn, B4 came in with an IC50 of 2.58 nM.
Same read-out and setting: to B5 belongs 1.96 nM.

For a further test, the target named is human PD-L1 on CHO-K1 cells (human, UniProt Q9NZQ7 19-290). Kind of test: FACS.
Sequence of human PD-L1 on CHO-K1 cells (Q9NZQ7 19-290): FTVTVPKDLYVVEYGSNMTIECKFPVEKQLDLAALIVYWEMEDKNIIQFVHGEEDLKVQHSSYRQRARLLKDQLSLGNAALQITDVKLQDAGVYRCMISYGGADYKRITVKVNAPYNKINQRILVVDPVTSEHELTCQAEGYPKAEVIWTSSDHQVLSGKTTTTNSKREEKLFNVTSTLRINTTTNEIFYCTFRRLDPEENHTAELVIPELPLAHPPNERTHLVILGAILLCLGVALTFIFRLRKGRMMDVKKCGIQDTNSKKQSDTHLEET
B9 had an EC50 of 0.963 nM.
Still for that read-out and setting: as for B10, the figure is 1.2 nM.

A further test deals with T2, human 4-1BB on CHO-K1 cells. Kind of test: FACS; FIG. 11L.
Target sequence in this assay (Q07011 24-255): as the sequence (Q07011 24-255) above
Turning to B11, the EC50 was determined as 18.9 nM.
On the same count and under the same terms, to B12 belongs 11.7 nM; to B13, 3.81 nM.

Another test shares this target. The experiment in a line: FACS. The source holds these as a separate data set.
Regarding B14, the concentration for a half-maximal effect (EC50) is 1.27 nM.
On the same count and under the same terms, to B15 belongs 0.846 nM; to B16, 0.532 nM.

Another test has the same target. Kind of test: FACS blocking of 4-1BBL.
Target sequence in this assay (Q07011 24-255): as above
Turning to B17, the IC50 is 2.31 nM.
As for B18, it took 2.05 nM to reach half-maximal inhibition (IC50).
Still for that read-out and setting: to B19 belongs 3.61 nM.

A further test concerns the target T1, cynomolgus monkey 4-1BB on CHO-K1 cells. Kind of test: FACS; FIG. 12C.
B14 came in with an EC50 of 6.73 nM.
Same read-out and setting: to B15 belongs 6.97 nM.
For the molecule B16, it took 3.77 nM to reach a half-maximal effect (EC50).

Another test deals with T2, human 4-1BB on CHO-K1 cells. Kind of test: FACS blocking of 4-1BBL. This is another data set of the same source.
Target sequence in this assay (Q07011 24-255): as above
For B11, the 50% inhibitory concentration (IC50) worked out at 16.1 nM.
On to B6, for which the half-inhibitory concentration (IC50) was 2.87 nM.
Molecule B12 displayed an IC50 of 11.3 nM.
For B7, 23.1 nM corresponded to half-maximal inhibition (IC50).
The same measure, in the same setting: as for B1, the figure is 5.37 nM; as for B8, 6.7 nM; as for B13, 4.19 nM.
On the same count and under the same terms, as for B2, the figure is 6.61 nM; as for B3, 11.2 nM.

A further test addresses T1, cynomolgus monkey 4-1BB on CHO-K1 cells. The experiment in a line: FACS; FIG. 12F.
For the molecule B4, a half-maximal effect (EC50) was put at 1.25 nM.
Regarding B5, the concentration giving a half-maximal response (EC50) is 1.63 nM.

Another test shares this target. Kind of test: FACS; FIG. 12K.
As to B11, it took 11.1 nM to reach a half-maximal effect (EC50).
Same read-out and setting: to B12 belongs 8.84 nM; to B13, 3.28 nM.

In a further test the target is T2, human 4-1BB on CHO-K1 cells. The experiment in a line: FACS. The source holds these as a separate data set.
Target sequence in this assay (Q07011 24-255): as above
Consider B17, for which a half-maximal response (EC50) required 0.274 nM.
Still for that read-out and setting: as for B18, the figure is 0.198 nM.
B19 came in with a half-maximal effective concentration (EC50) of 0.212 nM.

For another test, the target named is T1, cynomolgus monkey 4-1BB on CHO-K1 cells. The experiment in a line: FACS; FIG. 12A.
For the molecule B17, a half-maximal effect (EC50) was put at 0.788 nM.
Same read-out and setting: to B18 belongs 0.443 nM.
Same read-out and setting: as for B19, the figure is 0.575 nM.

In a further test the target is T2, human 4-1BB on CHO-K1 cells. The experiment in a line: FACS; FIG. 11M.
Take B6: the half-maximal effective concentration (EC50) was 2.77 nM.
On the same count and under the same terms, as for B7, the figure is 17 nM; as for B8, 3.71 nM.

The target is the same in a further test. The experiment in a line: FACS blocking of 4-1BBL. This is another data set of the same source.
In turn, B14 returned an IC50 of roughly 2.12 nM.
In the case of B16, the half-inhibitory concentration (IC50) was determined as 21.6 nM.

The target in a further test is T1, cynomolgus monkey 4-1BB on CHO-K1 cells. The experiment in a line: FACS.
B9 returned an EC50 of 1.55 nM.
The same measure, in the same setting: as for B10, the figure is 0.621 nM.
